For assay [1], the target named is elongation factor thermo-unstable (EF-Tu), hexahistidine-tagged (E. coli) (UniProt P0CE47). Nature of the assay: SEC. On the technique in general: In gel filtration, larger molecules generally elute earlier.
Assay [2] deals with preformed oligomeric EF-Tu (^OligoEF-Tu) (E. coli) (UniProt P0CE47). Nature of the assay: ITC.

With “elongation factor thermo-unstable (EF-Tu), hexahistidine-tagged (from UniProt P0CE47 1-394) (natural protein)”, the stoichiometry N (in general, a count of units in the complex or per binding partner) in assay [1] stood at 2.

For the substance “reduced form of Hsp33 (^RHsp33) (from UniProt P0A6Y5 1-292) (natural protein)”, in assay [1], the stoichiometry N came out at 1. For the same substance, in assay [2], the Kd (in general, the equilibrium constant for the complex coming apart) amounted to 580 nM; the dH is -18.8 kcal/mol; the stoichiometry N stood at 2.37.

The record behind these values is publication doi:10.1101/492876.
